Experimental data as given in publication PMC9082959, “Mechanism of Assembly of the Non-Covalent Spectrin Tetramerization Domain from Intrinsically Disordered Partners” (Journal of molecular biology, 2013).
Substitutions are numbered along the chain they refer to.

Legend:
Test in all cases: ITC; β16β17 at 25–50 μM in the cell titrated with 15–20 injections to 2–2.5 eq of α0α1; one-site binding model; PBS (50 mM sodium phosphate, 150 mM NaCl, pH 7.04), 25 °C; mutants only against the wild-type partner
Settings in all cases: both partners purified
β16β17 Q25A = molecular target: T1, β16β17 Q25A (human, UniProt P11277 1898-2083, Q2028A)
T1 construct: erythrocyte β-spectrin, human, residues 1898-2083 (β16β17); mutant of m2; also called Q2028A; source: E. coli C41(DE3), purified (Ni2+ agarose, thrombin cleavage, gel filtration)
T1 sequence (looked up): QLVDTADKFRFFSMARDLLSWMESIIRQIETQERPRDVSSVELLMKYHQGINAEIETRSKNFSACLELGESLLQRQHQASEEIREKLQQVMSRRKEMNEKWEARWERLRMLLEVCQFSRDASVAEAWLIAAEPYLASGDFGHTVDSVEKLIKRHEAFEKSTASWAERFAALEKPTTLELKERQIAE

β16β17 F11L = molecular target: T2, β16β17 F11L (human, UniProt P11277 1898-2083, F2014L)
T2 construct: erythrocyte β-spectrin, human, residues 1898-2083 (β16β17); mutant of m2; also called F2014L; source: E. coli C41(DE3), purified (Ni2+ agarose, thrombin cleavage, gel filtration)
T2 sequence (looked up): T1 sequence (looked up) with F117L, A131Q

β16β17 E19A = molecular target: T3, β16β17 E19A (human, UniProt P11277 1898-2083, E2022A)
T3 construct: erythrocyte β-spectrin, human, residues 1898-2083 (β16β17); mutant of m2; also called E2022A; source: E. coli C41(DE3), purified (Ni2+ agarose, thrombin cleavage, gel filtration)
T3 sequence (looked up): T1 sequence (looked up) with E125A, A131Q

β16β17 A20G = molecular target: T4, β16β17 A20G (human, UniProt P11277 1898-2083, A2023G)
T4 construct: erythrocyte β-spectrin, human, residues 1898-2083 (β16β17); mutant of m2; also called A2023G; source: E. coli C41(DE3), purified (Ni2+ agarose, thrombin cleavage, gel filtration)
T4 sequence (looked up): T1 sequence (looked up) with A126G, A131Q

β16β17 D39G = molecular target: T5, β16β17 D39G (human, UniProt P11277 1898-2083, D2042G)
T5 construct: erythrocyte β-spectrin, human, residues 1898-2083 (β16β17); mutant of m2; also called D2042G; source: E. coli C41(DE3), purified (Ni2+ agarose, thrombin cleavage, gel filtration)
T5 sequence (looked up): T1 sequence (looked up) with A131Q, D145G

β16β17 K46G = molecular target: T6, β16β17 K46G (human, UniProt P11277 1898-2083, K2049G)
T6 construct: erythrocyte β-spectrin, human, residues 1898-2083 (β16β17); mutant of m2; also called K2049G; source: E. coli C41(DE3), purified (Ni2+ agarose, thrombin cleavage, gel filtration)
T6 sequence (looked up): T1 sequence (looked up) with A131Q, K152G

B1: α0α1 (erythrocyte α-spectrin residues 2–163), wild type (domain or fragment, human, UniProt P02549 2-163, looked up)
chain: EQFPKETVVESSGPKVLETAEEIQERRQEVLTRYQSFKERVAERGQKLEDSYHLQVFKRDADDLGKWIMEKVNILTDKSYEDPTNIQGKYQKHQSLEAEVQTKSRLMSELEKTREERFTMGHSAHEETKAHIEELRHLWDLLLELTLEKGDQLLRALKFQQY
notes: synthetic gene (GenScript) in a modified pRSETA plasmid; also called α1α0; source: E. coli C41(DE3), purified (Ni2+ agarose, thrombin cleavage, gel filtration)
- Ka (β16β17 Q25A): 120000 M⁻¹
- Ka (β16β17 F11L): 16000 M⁻¹
- Ka (β16β17 E19A): 93000 M⁻¹
- Ka (β16β17 A20G): 530000 M⁻¹
- Ka (β16β17 D39G): 280000 M⁻¹
- Ka (β16β17 K46G): 230000 M⁻¹
